{"source": "patent KR20230108156A", "about": "(dated 2023)", "binders": {"B1": {"name": "14D6-52-5 단일클론항체 (14D6 단클론항체, mouse) (antibody, V domains shown)", "VH": "QVQLQQSGAELVKPGASVKLSCKASGYTFTRYYMFWVKQRPGQGLEWIGEINPTNGDTNFNEEFKSKATLTVDKSSSTAYMQLSSLTSEDSAVYYCTRPLGSRDAMDYWGPGTSVTVSS", "VL": "DIVLTQSPASLAVSLGQRATISCRASQSVSSSRYSYMHWYQQKPGQPPKLLIKYASSLESGVPARFSGSGSGTDFTLNIHPVEGEDTATYYCQHSWELPWTFGGGTKLEIK", "notes": "Mouse monoclonal antibody from a hybridoma (Balb/c mouse immunised with recombinant human CD40L); also called 14D6 마우스항체; Mouse 14D6"}}, "key": {"[1]": {"target": "CD40L on CD40L 표면발현 CHO 세포 (CHO cells expressing CD40L on the surface, ATCC) (UniProt P29965)", "assay": "cell-based or functional assay"}, "[2]": {"target": "재조합 인간 CD40L 단백질 (recombinant human CD40L protein, Sino biological, Accession#: NP_000065.1, Cat: 10239-H08E) (human) (UniProt P29965)", "assay": "cell-based or functional assay"}, "[3]": {"target": "CD40L on CD40L 표면발현 CHO 세포 (CHO cells expressing CD40L on the surface, ATCC) (UniProt P29965)", "assay": "flow cytometry on CD40L CHO cells, 0.01-0.5 μg/test"}, "[4]": {"target": "T1, CD40 on CD40 표면발현 CHO 세포 (CHO cells expressing CD40 on the surface, ATCC) (UniProt P25942 21-277, limits assumed)", "T1 construct": "whole, on cells; also called CD40 CHO 세포", "T1 sequence (P25942 21-277 limits assumed)": "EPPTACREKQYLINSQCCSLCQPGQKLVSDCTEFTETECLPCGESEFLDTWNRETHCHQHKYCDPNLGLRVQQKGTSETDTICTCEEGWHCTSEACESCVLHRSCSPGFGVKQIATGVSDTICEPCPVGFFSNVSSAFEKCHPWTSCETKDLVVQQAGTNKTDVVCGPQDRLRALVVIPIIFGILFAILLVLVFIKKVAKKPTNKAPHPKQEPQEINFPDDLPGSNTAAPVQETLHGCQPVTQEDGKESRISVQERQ", "assay": "flow cytometry on CD40 CHO cells, goat anti-mouse Ig-FITC"}, "[5]": {"target": "T2, CD40L in lysates of Jurkat cells and HeLaS3 cells (32 ~ 39 kDa band) (human, UniProt P29965 1-261)", "T2 construct": "Denatured protein on a PVDF membrane", "T2 sequence (looked up)": "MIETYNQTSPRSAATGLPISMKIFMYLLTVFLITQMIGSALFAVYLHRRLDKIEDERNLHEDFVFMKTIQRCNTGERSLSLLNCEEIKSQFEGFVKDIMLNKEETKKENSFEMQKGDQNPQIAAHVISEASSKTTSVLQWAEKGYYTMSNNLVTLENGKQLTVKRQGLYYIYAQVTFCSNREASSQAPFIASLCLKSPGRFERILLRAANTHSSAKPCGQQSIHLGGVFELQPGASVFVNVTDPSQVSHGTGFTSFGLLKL", "assay": "western blot of Jurkat and HeLaS3 lysates, reducing and non-reducing, 14D6 0.5 μg/ml"}, "[6]": {"target": "T3, CD40L induced on T cells of human PBMC stimulated with PMA and ionomycin (human, UniProt P29965 1-261)", "T3 construct": "whole, on cells", "T3 sequence (looked up)": "T2 sequence (looked up)", "assay": "flow cytometry on PMA/ionomycin-stimulated human PBMC, 0.1 μg, CD3-APC gate, anti-mouse Ig-FITC"}, "[7]": {"target": "CD40L-hFc 단백질 (Sino biological, Accession#: NP_000065.1, Cat: 10239-H01H) (human) (UniProt P29965)", "assay": "competition, flow cytometry: 14D6 pre-mixed with CD40L-hFc (2 μg), binding to CD40 on Bjab cells read"}, "[8]": {"target": "재조합 인간 CD40L 단백질 (recombinant human CD40L protein, Sino biological, Accession#: NP_000065.1, Cat: 10239-H08E) (human) (UniProt P29965)", "assay": "ELISA, plate coated with recombinant human CD40L 100 ng/well, 14D6 two-fold dilutions from 1000 ng/ml, anti-mouse IgG-HRP"}}}
{"binder": "B1", "values": [{"measurement": "ICAM-1 expression on Ramos B cells co-cultured with CD40L CHO cells (flow cytometry)", "setting": "[1]", "result": "> 0.5", "unit": "μg/test"}, {"measurement": "antibody concentration for complete blocking of SEAP OD 655nm (HEK-Blue CD40L cells), CD40L 12.5ng/ml", "setting": "[2]", "result": "> 50", "unit": "ng/mL"}, {"measurement": "antibody concentration for complete blocking of SEAP OD 655nm (HEK-Blue CD40L cells), CD40L printed as 12.5ng/ml a second time (25ng/ml probably meant)", "setting": "[2]", "result": "> 500", "unit": "ng/mL"}, {"measurement": "amount at which binding is saturated", "setting": "[3]", "result": "> 0.1", "unit": "µg"}, {"measurement": "binding result", "setting": "[4]", "result": "no binding (tested: 0.05μg/test)"}, {"measurement": "binding result", "setting": "[5]", "result": "binds"}, {"measurement": "binding result", "setting": "[6]", "result": "binds"}, {"measurement": "amount at which blocking equals the negative control", "setting": "[7]", "result": "> 0.1", "unit": "µg"}, {"measurement": "concentration at which binding is saturated", "setting": "[7]", "result": "> 0.1", "unit": "μg/50μl"}, {"measurement": "concentration at which binding is saturated", "setting": "[8]", "result": "> 100", "unit": "ng/mL"}]}
